{
  "source": "patent US20240165226A1",
  "about": "“COMBINATION TREATMENT OF CD38-EXPRESSING TUMORS” (GENMAB A/S, priority 2006, published 2024)",
  "key": {"wt human CD38": {"biological_target": "T1, wt human CD38 (Homo sapiens, UniProt P28907)", "T1 construct": "The extracellular domain of human CD38 was amplified from plasmid pCIpuroCD38; signal peptide SPHMM (N); made in house; host or cells: Freestyle 293-F (HEK-293F), transient; culture supernatant used", "assay": "ELISA binding to wild type HA-CD38", "protocol": "Freestyle™ 293-F (a HEK-293 subclone adapted to suspension growth and chemically defined Freestyle medium, (HEK-293F)) cells were obtained from Invitrogen and transfected with pEE13.4HACD38 and with the three constructs carrying the mutations T237A, Q272R and S274F, according to the manufacturer's protocol using 293fectin (Invitrogen). Culture supernatants of transfected cells were used in ELISA for anti-CD38 binding studies.\nCulture supernatants of transfected HEK293F cells were diluted, applied to the ELISA plates and incubated for 1 hr at RT. After washing, serial dilutions of HuMabs -003 and -005 were added and incubated for 1 hr at RT. Bound antibodies were detected with HRP-conjugated goat-anti-human IgG antibodies. The assay was developed with ABTS (Roche, #1112597) and the absorbance was measured at 405 nm using a spectrophotometer."}, "HA-tagged CD38": {"biological_target": "T2, HA-tagged CD38 (Homo sapiens, UniProt P28907)", "T2 construct": "The extracellular domain of human CD38 was amplified from plasmid pCIpuroCD38; made in house", "assay": "Surface plasmon resonance (Biacore 3000)", "format": "binding", "conditions": "25° C., mean of 3 experiments±SD", "protocol": "Binding of -003 and -005 to CD38 was tested using surface plasmon resonance. Briefly, purified antibodies were immobilized on a CM-5 sensor chip (Biacore, Uppsala, Sweden) via anime coupling. HA-tagged CD38 (see Example 3) was flowed over, and the binding of antigen to mAb was detected by a change in refractive index at the surface of the chip using a Biacore 3000 (Biacore)."}, "[1]": {"biological_target": "T3, CHO cells transfected with human CD38 (CHO-CD38 cells) (Homo sapiens, UniProt P28907)", "T3 construct": "expressed in transfected cells; host or cells: CHO cells", "assay": "Enzymatic activity of cellular expressed CD38 (cGDPR production)", "format": "cell-based", "conditions": "after 156 minutes; for cGDPribose production: CHO-CD38 cells", "protocol": "The enzymatic activity of cellular expressed human CD38 was measured in an assay essentially as described in Graeff et al., J. Biol. Chem. 269, 30260-30267 (1994). Briefly, substrate NGD (80 μM) was incubated with […] CHO cells transfected with human CD38 (CHO-CD38 cells) in a buffer containing 20 mM Tris-HCl, pH 7.0 supplemented with 30 μg/ml IgG1. The production of cGDPR can be monitored spectrophotometrically at the emission wavelength of 410 nm (excitation at 300 nm). In this example an excitation filter of 340±60 nm and an emission filter of 430±8 nm was used. To test the effect of -005 and -003 on the enzymatic activity of cellular expressed CD38, CHO-CD38 cells were pre-incubated for 15′ at room temp. with various concentrations (30, 3, 0.3 and 0.03 μg/ml) of the different antibodies before adding the substrate NGD. The production of cGDPR was recorded at different time points after addition of substrate NGD (3, 6, 9, 12, 30, 45, 60, 112 and 156 min)."}, "[2]": {"system": "plasma cells in implanted synovial tissue", "assay": "RA-SCID mouse model, synovial tissue xenografts", "format": "in vivo, SCID-mice", "conditions": "12 mg/kg i.v. day 8, day 14", "source_text": "SCID-mice, strain C.B.-17/lcrCrl-SCID-bg, male/female, 4-12 weeks, purchased from Charles River Laboratories Nederland (Maastricht, the Netherlands) were kept in IVC cages under standard conditions of temperature and light, and were fed laboratory chow and water ad libitum. Prior to implantation, mice (three mice in each experimental group, day 0) were anesthetized by intraperitoneal injection of ketamine (NIMATEK, EuroVet) and xylazine (Rompun, Bayer) at ratio 1:1. A small incision of the skin was made using surgical scissors. […] On day 1 of the experiment, remaining synovial tissue was analyzed in order to check for B cells in the inflamed synovial transplants. -005 (12 mg/kg) or control antibody (anti-KLH, 30 mg/kg) was injected (i.v.), in a volume of 200 μl on day 8 of the experiment. […]\nScoring of stained synovial tissue xenografts was performed in a blinded fashion by two trained persons. […] The staining intensity in the other sections was then scored on a scale of 0 to 8, relative to the reference section.\nScoring of staining intensity was analyzed by Kruskal-Wallis one-way ANOVA followed by Dunn's multiple comparison test using Graph Pad Prism version 4.01 (Graph Pad software, Inc., San Diego, CA, USA)."}},
  "data": [
    {"substance": "-005: human monoclonal IgG1 anti-CD38 antibody, VL region SEQ ID No:12 and VH region SEQ ID No:17", "values": [
      {"measurement": "binding to wt human CD38", "setting": "wt human CD38", "value": "bind"},
      {"measurement": "KA", "setting": "HA-tagged CD38", "value": "1.7e+08 ± 3.68e+07", "unit": "M⁻¹"},
      {"measurement": "Kd", "setting": "HA-tagged CD38", "value": 6.06, "unit": "nM"},
      {"measurement": "ka", "setting": "HA-tagged CD38", "value": "88800 ± 19500", "unit": "M⁻¹ s⁻¹"},
      {"measurement": "kd", "setting": "HA-tagged CD38", "value": "0.000522 ± 1.16e-05", "unit": "s⁻¹"},
      {"measurement": "cGDPribose production", "setting": "[1]; 0.03 μg/ml antibody", "value": "104 % of NGD control"},
      {"measurement": "cGDPribose production", "setting": "[1]; 0.3 μg/ml antibody", "value": "100 % of NGD control"},
      {"measurement": "cGDPribose production", "setting": "[1]; 3 μg/ml antibody", "value": "82 % of NGD control"},
      {"measurement": "reduced production of cGDPR", "setting": "[1]; 3 μg/ml", "value": 18, "unit": "%"},
      {"measurement": "cGDPribose production", "setting": "[1]; 30 μg/ml antibody", "value": "79 % of NGD control"},
      {"measurement": "reduced production of cGDPR", "setting": "[1]; 30 μg/ml", "value": 21, "unit": "%"},
      {"measurement": "numbers of anti-CD38-positive plasma cells in xenografts", "setting": "[2]", "value": "reduced"},
      {"measurement": "numbers of plasma cells (anti-CD138 staining) in xenografts", "setting": "[2]", "value": "reduced numbers of plasma cells"}
    ]}
  ]
}
